Results as given in patent US8158585B2, “Cross-β structure comprising amyloid-binding proteins and methods for detection of the cross-β structure, for modulating cross-β structures fiber formation and modulating cross-β structure-mediated toxicity” (CrossBeta Biosciences B.V., priority 2002, dated 2012).

Assays:
Aβ (1-40) = Aβ (1-40) (Homo sapiens, UniProt P05067); assay: ELISA: binding of tPA (f.l. tPA, K2-P tPA) to Aβ (1-40), with Congo red competition; design: Peptide Aβ (1-40), containing amino acids as present in the described human Alzheimer peptide; purchased Pepscan, Inc. or peptide synthesis facility of the Netherlands Cancer Institute; host or cells: chemical synthesis; conditions: 40 nM tPA, 0-100 μM Congo red
Sequence of Aβ (1-40) (P05067 672-711): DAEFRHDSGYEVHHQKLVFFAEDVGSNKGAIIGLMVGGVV
Procedure: (§1) Binding of tPA to albumin-g6p (four-week and 23-week incubations), albumin-glyceraldehyde, control albumin, human Hb-g6p (ten-week incubation), Hb control, or to Aβ (1-40) was tested using an enzyme-linked immunosorbent assay (ELISA) set-up. Albumin-g6p and control albumin (2.5 μg ml^−1 in coat buffer, 50 mM Na2CO3/NaHCO3 pH 9.6, 0.02% m/v NaN3, 50 μl/well) were immobilized for one hour at room temperature in 96-well protein Immobilizer plates (Exiqon, Vedbaek, Denmark). Aβ (1-40) (10 μg ml^−1 in coat buffer) was immobilized for 75 minutes at room temperature in a 96-well peptide Immobilizer plate (Exiqon, Vedbaek, Denmark). Control wells were incubated with coat buffer only. After a wash step with 200 μl of PBS/0.1% v/v Tween 20, plates were blocked with 300 μl of PBS/1% v/v Tween 20, for two hours at room temperature while shaking. All subsequent incubations were performed in PBS/0.1% v/v Tween 20 for one hour at room temperature while shaking, with volumes of 50 μl per well. After each incubation, wells were washed five times with 200 μl of PBS/0.1% v/v Tween 20. Increasing amounts of f.l. tPA or K2-P tPA was added in triplicate to coated wells and to control wells. […] Absorbance was read at 490 nm on a Vmax kinetic microplate reader (Molecular Devices, Sunnyvale, Calif., USA). […]

[1] = molecular target: T1, albumin-g6p (albumin-AGE) (Bos taurus, UniProt P02769); assay: ELISA: binding of tPA (f.l. tPA, K2-P tPA) to albumin-g6p, with Congo red competition; design: species or system bovine; conditions: 20 nM tPA, increasing Congo red
T1 construct: Bovine serum albumin (BSA) fraction V pH 7.0; host or cells: bovine serum, fraction V
T1 sequence (P02769 25-607): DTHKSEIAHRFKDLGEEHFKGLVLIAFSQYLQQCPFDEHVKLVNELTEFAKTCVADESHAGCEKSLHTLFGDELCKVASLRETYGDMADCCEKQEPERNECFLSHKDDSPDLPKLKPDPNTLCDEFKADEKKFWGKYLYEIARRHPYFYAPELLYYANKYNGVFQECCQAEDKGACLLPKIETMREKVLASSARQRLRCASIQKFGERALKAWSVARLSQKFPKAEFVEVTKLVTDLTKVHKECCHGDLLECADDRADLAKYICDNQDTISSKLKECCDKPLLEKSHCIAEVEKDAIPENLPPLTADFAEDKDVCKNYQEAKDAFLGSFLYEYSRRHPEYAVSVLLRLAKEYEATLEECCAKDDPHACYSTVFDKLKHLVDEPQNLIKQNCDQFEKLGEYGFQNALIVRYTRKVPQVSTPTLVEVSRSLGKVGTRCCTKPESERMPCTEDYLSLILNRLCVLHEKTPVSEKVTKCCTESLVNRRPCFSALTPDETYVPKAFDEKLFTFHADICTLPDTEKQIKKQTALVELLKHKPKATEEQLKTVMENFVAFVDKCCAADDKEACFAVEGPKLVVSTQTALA
Procedure: as §1

Aβ fibrils = molecular target: T2, Aβ fibrils (Homo sapiens, UniProt P05067); assay: Amyloid pull-down with insoluble Aβ fibers; format: binding; conditions: conditioned BHK medium
T2 construct: Peptide Aβ (1-40), containing amino acids as present in the described human Alzheimer peptide; purchased Pepscan, Inc. (The Netherlands) or peptide synthesis facility at the Netherlands Cancer Institute; host or cells: synthetic peptide
T2 sequence (P05067 672-711): as the sequence (P05067 672-711) above

IAPP = molecular target: T3, IAPP (Homo sapiens, UniProt P10997); assay: Amyloid ELISA with tPA F-EGF-GST: IAPP; format: binding
T3 construct: purchased Pepscan, Inc. (The Netherlands) or peptide synthesis facility at the Netherlands Cancer Institute; host or cells: synthetic peptide
T3 sequence (P10997 34-70 limits assumed): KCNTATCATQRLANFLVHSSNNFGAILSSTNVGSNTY
Procedure: (§2) In order to define the affinity of the purified tPA F-EGF-GST recombinant protein, ELISAs were performed with immobilized amyloid (poly)peptides and non-amyloid control ΔmIAPP. Twenty-five μg ml^−1 of Aβ, FP13, IAPP or ΔmIAPP was immobilized on Exiqon peptide immobilizer plates. A concentration series of tPA F-EGF-GST in the presence of excess εACA was added to the wells and binding was assayed using anti-GST antibody Z-5. As a control, GST (Sigma-Aldrich, St. Louis, Mo., USA, catalogue #G-5663) was used at the same concentrations.

Aβ = molecular target: T4, Aβ (Homo sapiens, UniProt P05067); assay: Amyloid ELISA with tPA F-EGF-GST: Aβ; format: binding
T4 construct: Peptide Aβ (1-40), containing amino acids as present in the described human Alzheimer peptide; purchased Pepscan, Inc. or peptide synthesis facility of the Netherlands Cancer Institute; host or cells: chemical synthesis
T4 sequence (P05067 672-711): as the sequence (P05067 672-711) above
Procedure: as §2

[2] = system: amyloid deposits in human brain inflicted by AD; assay: Immunohistochemistry: binding of tPA F-EGF to human AD brain; conditions: 7 nM construct; Congo red fluorescence to locate amyloid
Procedure: Paraffin brain sections of a human inflicted with AD was a kind gift of Prof. Slootweg (Dept. of Pathology, UMC Utrecht). Sections were deparaffinized in a series of xylene-ethanol. Endogenous peroxidases were blocked with methanol/1.5% H2O2 for 15 minutes. After rinsing in H2O, sections were incubated with undiluted formic acid for ten minutes, followed by incubation in PBS for five minutes. Sections were blocked in 10% HPS in PBS for 15 minutes. Sections were exposed for two hours with 7 nM of tPA F-EGF-GST or GST in PBS/0.3% BSA. After three wash steps with PBS, sections were overlayed with 200 ng ml^−1 anti-GST antibody Z-5, for one hour. After washing, ready-to-use goat anti-rabbit Powervision (Immunologic, Duiven, The Netherlands, catalogue #DPVR-55AP) was applied and incubated for one hour. After washing, sections were stained for ten minutes with 3,3′-diamino benzidine (Sigma-Aldrich, St Louis, Mo., USA, catalogue #D-5905), followed by hematoxylin staining for ten seconds. After washing with H2O, sections were incubated with Congo red according to the manufacturer's recommendations (Sigma Diagnostics, St Louis, Mo., USA). […] Analysis of sections was performed on a Leica DMIRBE fluorescence microscope (Rijswijk, The Netherlands). Fluorescence of Congo red was analyzed using an excitation wavelength of 596 nm and an emission wavelength of 620 nm.

[3] = molecular target: T5, fibrin fragment α148-160 FP13 (Homo sapiens, UniProt P02671); assay: Amyloid ELISA with tPA F-EGF-GST: FP13; format: binding
T5 construct: purchased Pepscan, Inc. or peptide synthesis facility of the Netherlands Cancer Institute; host or cells: chemical synthesis
Procedure: as §2

IAPP fibrils = molecular target: T6, IAPP fibrils (Homo sapiens, UniProt P10997); assay: Amyloid pull-down with IAPP fibrils; format: binding; conditions: conditioned BHK medium
T6 construct: purchased Pepscan, Inc. (The Netherlands) or peptide synthesis facility at the Netherlands Cancer Institute; host or cells: synthetic peptide
T6 sequence (P10997 34-70 limits assumed): T3 sequence (P10997 34-70 limits assumed)
Procedure: Conditioned medium of BHK cells expressing GST-tagged tPA F, F-EGF, EGF, K1, F-EGF-K1, FXII F, HGFa F, Fn F4, Fn F5, Fn F4-5 and GST was used for amyloid binding assays. At first, constructs were adjusted to approximately equal concentration using Western blots. Qualitative binding of the recombinant fragments were evaluated using a “pull-down” assay. To this end, the recombinantly made fragments were incubated with either Aβ or IAPP fibrils. Since these peptides form insoluble fibers, unbound proteins can be easily removed from the fibers following centrifugation. The pellets containing the bound fragments were subsequently washed several times. Bound fragments were solubilized in SDS-sample buffer and analyzed by PAGE, as were unbound proteins in the supernatant fraction and starting material. The gels were analyzed using immunoblotting analysis with the anti-GST antibody Z-5.

Molecule | competition of tPA binding to Aβ (Aβ (1-40)) | competition of tPA binding to albumin-g6p [1] | binding to Aβ fibers (pull-down, Western blot) (Aβ fibrils) | binding to IAPP (IAPP) | binding to Aβ (Aβ) | binding to amyloid deposits in AD brain sections [2] | binding to FP13 [3] | binding to IAPP fibrils (pull-down, not shown) (IAPP fibrils)
Nc1c(/N=N/c2ccc(-c3ccc(/N=N/c4cc(S(=O)(=O)O)c5ccccc5c4N)cc3)cc2)cc(S(=O)(=O)O)c2ccccc12 [Congo red] | competed | competed |  |  |  |  |  | 
GST: glutathion-S-transferase tag alone, negative control |  |  | remain in the supernatant | did not bind | some binding | did not show specific binding | did not bind | 
HGFa F-GST: finger domain of human hepatocyte growth factor activator with GST tag |  |  | specifically bind |  |  |  |  | specifically bind
